In article PMC5399129:

Assays:
[1] = biological target: MbR D183A (Methanococcoides burtonii); assay: native gel or EMSA; non-denaturing PAGE (4-15% gel; 25 mM Tris, 0.19 M glycine, pH 8.3) of activated MbR incubated with 1x or 10x molar 2-CABP (relative to active sites) for 1 h at room temperature; step: L2 dimers to higher oligomers up to L10; some 2-CABP-bound samples were then incubated with 20 or 40 mM EDTA for 30 min, which did not pull the higher order complexes apart
[2] = biological target: MbR D366A (Methanococcoides burtonii); assay: as above
[3] = biological target: MbR E179A (Methanococcoides burtonii); assay: as above
[4] = biological target: Methanococcoides burtonii Rubisco (MbR), wild type, H6-Ub tag cleaved (Methanococcoides burtonii); assay: native gel or EMSA; non-denaturing PAGE of purified, activated MbR incubated without 2-CABP: with 4-CABP or XuBP (1x, 10x molar), 3-PGA (1x, 10x, 1000x molar) or crystallization buffer alone, 1 h at room temperature; step: L2 dimers to higher oligomers
[5] = biological target: Methanococcoides burtonii Rubisco (MbR), wild type, H6-Ub tag cleaved (Methanococcoides burtonii); assay: crystal structure; MbR activated (10 mM NaHCO3, 10 mM MgCl2) and incubated with a 10-fold molar excess of 2-CABP; hanging drop, room temperature; 2.6 Å; five LSus in the asymmetric unit, L10 by crystallographic symmetry

MbR D183A (enzyme)
stoichiometry N [1]: 10

MbR D366A (enzyme)
stoichiometry N [2]: 10

MbR E179A (enzyme)
stoichiometry N [3]: 2

Methanococcoides burtonii Rubisco (MbR), wild type, H6-Ub tag cleaved (enzyme)
stoichiometry N [4]: 2 | stoichiometry N [5]: 10
